Source: patent US20250296959A1, “B7-H3 TARGETING PEPTIDES AND CONSTRUCTS THEREOF” (Mariana Oncology Inc., priority 2024, published 2025)
Starred links: 1 amine or outer side, 2 acyl side, 3 side chain; linkers in the order of their positions; H or OH if unused. Positions of bridges follow the written chain, without caps; N, C: chain ends. Non-standard residues stand in square brackets, D forms with d. *: point of attachment. Ala(piperidin-4-yl) = O=C([C@H](CC1CCN([*:3])CC1)N[*:1])[*:2]; DOTA = O=C(O)CN1CCN(CC(=O)O)CCN(CC(=O)*)CCN(CC(=O)O)CC1; Trp(5-F) = N[C@@H](Cc1c[nH]c2ccc(F)cc12)C(=O)O; Pro(cis-4-F) = O=C(O)[C@@H]1C[C@H](F)CN1; γGlu = O=C(O)[C@H](CCC(=O)[*:2])N[*:1]; Ala(4-THP) = N[C@@H](CC1CCOCC1)C(=O)O; AEF = NCCOc1ccc(C[C@H](N)C(=O)O)cc1; Val(3-OH) = CC(C)(O)[C@H](N)C(=O)O; Hyp = O=C(O)[C@@H]1C[C@@H](O)CN1; 4Pal = N[C@@H](Cc1ccncc1)C(=O)O; aThr = C[C@H](O)[C@H](N)C(=O)O; Tle = CC(C)(C)[C@H](N)C(=O)O; hLeu = CC(C)CC[C@H](N)C(=O)O; Pip = O=C(O)[C@@H]1CCCCN1; Nle = CCCC[C@H](N)C(=O)O; Sar = CNCC(=O)O

Columns and labels:
[1] = target: Biotinylated human 4Ig B7-H3 (human) (UniProt Q5ZPR3); experiment: SPR 37C; C = 10<KD<=100 nM
[2] = target: T1, Biotinylated human 4Ig B7-H3 (human, UniProt Q5ZPR3 29-461, limits assumed, biotinylated (site not stated)); experiment: SPR 37C; D = 100<KD<=300 nM
T1 construct: Protein captured on the SA chip for SPR; also called 4lg-B7-H3; B7-H3 isoform 4Ig
T1 sequence: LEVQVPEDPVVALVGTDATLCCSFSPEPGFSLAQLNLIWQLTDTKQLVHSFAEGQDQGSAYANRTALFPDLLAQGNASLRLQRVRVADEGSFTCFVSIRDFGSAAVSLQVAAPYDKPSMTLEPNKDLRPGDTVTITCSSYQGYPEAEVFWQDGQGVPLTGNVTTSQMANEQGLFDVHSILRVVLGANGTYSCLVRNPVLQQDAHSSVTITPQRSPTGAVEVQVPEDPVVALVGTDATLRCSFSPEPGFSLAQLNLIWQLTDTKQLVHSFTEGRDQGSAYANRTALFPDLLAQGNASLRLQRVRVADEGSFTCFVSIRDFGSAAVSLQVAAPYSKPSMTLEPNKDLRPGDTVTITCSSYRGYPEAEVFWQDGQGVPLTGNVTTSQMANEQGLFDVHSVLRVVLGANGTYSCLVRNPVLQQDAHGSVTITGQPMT

[3] = target: T1, Biotinylated human 4Ig B7-H3; experiment: SPR 25C; D = 100<KD<=300 nM
[4] = target: T1, Biotinylated human 4Ig B7-H3; experiment: SPR 37C; B = 1.0<KD<=10 nM
[5] = target: T1, Biotinylated human 4Ig B7-H3; experiment: SPR 25C; B = 1.0<KD<=10 nM
[6] = target: T1, Biotinylated human 4Ig B7-H3; experiment: SPR 25C; C = 10<KD<=100 nM
[7] = target: T2, 2Ig B7-H3 (UniProt Q5ZPR3-2 29-245, limits assumed); experiment: SPR, 37C
T2 construct: also called 2lg-B7-H3; B7-H3 isoform 2Ig
T2 sequence (looked up): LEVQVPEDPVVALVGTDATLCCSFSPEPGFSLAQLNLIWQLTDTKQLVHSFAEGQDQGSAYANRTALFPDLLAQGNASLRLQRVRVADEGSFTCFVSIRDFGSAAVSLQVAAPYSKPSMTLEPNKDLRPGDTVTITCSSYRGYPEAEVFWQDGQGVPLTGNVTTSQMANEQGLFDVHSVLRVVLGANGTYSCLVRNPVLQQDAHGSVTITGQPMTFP

[8] = target: T1, Biotinylated human 4Ig B7-H3; experiment: SPR 25C; B = 1.0<KD<=10 nM; remark: listed apart in the source
[9] = target: T1, Biotinylated human 4Ig B7-H3; experiment: SPR 25C; A = KD<=1.0 nM
[10] = target: T1, Biotinylated human 4Ig B7-H3; experiment: SPR 37C; A = KD<=1.0 nM
[11] = target: T2, 2Ig B7-H3; experiment: SPR, 25C
[12] = target: T1, Biotinylated human 4Ig B7-H3; experiment: SPR 25C; C = 10<KD<=100 nM; remark: listed apart in the source
[13] = target: T1, Biotinylated human 4Ig B7-H3; experiment: SPR 37C; C = 10<KD<=100 nM

B1: Cpd 322 (peptide)
peptide: Ac-[hLeu]YC[Tle]GK(DOTA)[Ala(4-THP)]DVYC[Trp(5-F)]F[Val(3-OH)]-OH
modifications: disulfide 3-11 (inferred)
KD [1]: 10 to 100 nM

B2: Cpd 1 (peptide)
peptide: Ac-MYCVGKYDVYCWF-NH2
modifications: disulfide 3-11
SMILES: CSCC[C@H](NC(C)=O)C(=O)N[C@@H](Cc1ccc(O)cc1)C(=O)N[C@H]1CSSC[C@@H](C(=O)N[C@@H](Cc2c[nH]c3ccccc23)C(=O)N[C@@H](Cc2ccccc2)C(N)=O)NC(=O)[C@H](Cc2ccc(O)cc2)NC(=O)[C@H](C(C)C)NC(=O)[C@H](CC(=O)O)NC(=O)[C@H](Cc2ccc(O)cc2)NC(=O)[C@H](CCCCN)NC(=O)CNC(=O)[C@H](C(C)C)NC1=O
KD [2]: 100 to 300 nM | KD [3]: 100 to 300 nM

B3: Cpd 28 (peptide)
peptide: Ac-[Nle]YCVGKYDVYCWFT[dK](DOTA)-OH
modifications: disulfide 3-11
SMILES: CCCC[C@H](NC(C)=O)C(=O)N[C@@H](Cc1ccc(O)cc1)C(=O)N[C@H]1CSSC[C@@H](C(=O)N[C@@H](Cc2c[nH]c3ccccc23)C(=O)N[C@@H](Cc2ccccc2)C(=O)N[C@H](C(=O)N[C@H](CCCCNC(=O)CN2CCN(CC(=O)O)CCN(CC(=O)O)CCN(CC(=O)O)CC2)C(=O)O)[C@@H](C)O)NC(=O)[C@H](Cc2ccc(O)cc2)NC(=O)[C@H](C(C)C)NC(=O)[C@H](CC(=O)O)NC(=O)[C@H](Cc2ccc(O)cc2)NC(=O)[C@H](CCCCN)NC(=O)CNC(=O)[C@H](C(C)C)NC1=O
KD [4]: 1 to 10 nM | KD [5]: 1 to 10 nM

B4: Cpd 27 (peptide)
peptide: Ac-[Nle]YCVGKYDVYCWFT[dK](DOTA)-NH2
modifications: disulfide 3-11
KD [4]: 1 to 10 nM | KD [5]: 1 to 10 nM

B5: Cpd 36 (peptide)
peptide: Ac-[Nle]YCVGKYDVYCWF[γGlu][γGlu]-NH2
modifications: disulfide 3-11
SMILES: CCCC[C@H](NC(C)=O)C(=O)N[C@@H](Cc1ccc(O)cc1)C(=O)N[C@H]1CSSC[C@@H](C(=O)N[C@@H](Cc2c[nH]c3ccccc23)C(=O)N[C@@H](Cc2ccccc2)C(=O)N[C@@H](CCC(=O)N[C@@H](CCC(N)=O)C(=O)O)C(=O)O)NC(=O)[C@H](Cc2ccc(O)cc2)NC(=O)[C@H](C(C)C)NC(=O)[C@H](CC(=O)O)NC(=O)[C@H](Cc2ccc(O)cc2)NC(=O)[C@H](CCCCN)NC(=O)CNC(=O)[C@H](C(C)C)NC1=O
KD [2]: 100 to 300 nM

B6: Cpd 267 (peptide)
peptide: Ac-[hLeu]YCIGK(DOTA)[4Pal]DVYC[Trp(5-F)]F[Hyp]-NH2
modifications: disulfide 3-11
KD [6]: 10 to 100 nM

B7: Cpd 268 (peptide)
peptide: Ac-[hLeu]YCIGK(DOTA)[4Pal]DVYC[Trp(5-F)]F[Pro(cis-4-F)]-NH2
modifications: disulfide 3-11
Kd [7]: 7000 nM | KD [8]: 1 to 10 nM

B8: Cpd 269 (peptide)
peptide: Ac-[hLeu]YCIGK(DOTA)[4Pal]DVYC[Trp(5-F)]F[Pip]-NH2
modifications: disulfide 3-11
KD [6]: 10 to 100 nM

B9: Cpd 295 (peptide)
peptide: Ac-[hLeu]YCVGK[AEF](DOTA)DVYC[Trp(5-F)]FT-NH2
modifications: disulfide 3-11
SMILES: CC(=O)N[C@@H](CCC(C)C)C(=O)N[C@@H](Cc1ccc(O)cc1)C(=O)N[C@H]1CSSC[C@@H](C(=O)N[C@@H](Cc2c[nH]c3ccc(F)cc23)C(=O)N[C@@H](Cc2ccccc2)C(=O)N[C@H](C(N)=O)[C@@H](C)O)NC(=O)[C@H](Cc2ccc(O)cc2)NC(=O)[C@H](C(C)C)NC(=O)[C@H](CC(=O)O)NC(=O)[C@H](Cc2ccc(OCCNC(=O)CN3CCN(CC(=O)O)CCN(CC(=O)O)CCN(CC(=O)O)CC3)cc2)NC(=O)[C@H](CCCCN)NC(=O)CNC(=O)[C@H](C(C)C)NC1=O
KD [9]: ≤ 1 nM | KD [10]: ≤ 1 nM

B10: Cpd 301 (peptide)
peptide: Ac-[hLeu]YCVG[Ala(piperidin-4-yl)][AEF](DOTA)DVYC[Trp(5-F)]FP-NH2
modifications: disulfide 3-11
SMILES: CC(=O)N[C@@H](CCC(C)C)C(=O)N[C@@H](Cc1ccc(O)cc1)C(=O)N[C@H]1CSSC[C@@H](C(=O)N[C@@H](Cc2c[nH]c3ccc(F)cc23)C(=O)N[C@@H](Cc2ccccc2)C(=O)N2CCC[C@H]2C(N)=O)NC(=O)[C@H](Cc2ccc(O)cc2)NC(=O)[C@H](C(C)C)NC(=O)[C@H](CC(=O)O)NC(=O)[C@H](Cc2ccc(OCCNC(=O)CN3CCN(CC(=O)O)CCN(CC(=O)O)CCN(CC(=O)O)CC3)cc2)NC(=O)[C@H](CC2CCNCC2)NC(=O)CNC(=O)[C@H](C(C)C)NC1=O
Kd [11]: 860 nM

B11: Cpd 93 (peptide)
peptide: Ac-[Nle]YCVGKYDVYCWF[aThr][dK](DOTA)-NH2
modifications: disulfide 3-11
KD [12]: 10 to 100 nM

B12: Cpd 26 (peptide)
peptide: Ac-[Nle]YCV[Sar]KYDVYCWF-NH2
modifications: disulfide 3-11
KD [12]: 10 to 100 nM | KD [13]: 10 to 100 nM
